Biological target: Rluc-tagged smAKAP, a peptide derived from an RI-specific AKAP
Assay: Renilla luciferase (Rluc) protein-fragment complementation assay (PCA)
Settings: bar labelled L50R:smAKAP; parent: est. 13; read off a plot

- response: 1.5 RLU 10^4
Substance: Rluc-tagged RIβ WT (Renilla luciferase protein-fragment complementation hybrid protein) (from UniProt P31321) L50R

Source: PMC11531844
